Results as given in patent US20170247440A1 (Hoffmann-La Roche, published 2017).
Read-outs that look alike come from different tables or passages of the source.

T1: human ANG2-RBD-mouse Fc-region fusion (human, UniProt O15123 275-496, limits assumed)
T1 sequence (looked up): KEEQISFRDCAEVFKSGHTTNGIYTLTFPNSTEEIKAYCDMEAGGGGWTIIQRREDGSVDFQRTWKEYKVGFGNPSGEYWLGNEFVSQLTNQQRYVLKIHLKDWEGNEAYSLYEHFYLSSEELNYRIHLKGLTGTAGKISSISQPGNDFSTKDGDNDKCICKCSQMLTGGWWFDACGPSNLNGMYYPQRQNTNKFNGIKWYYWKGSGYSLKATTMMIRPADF

B1: antibody 0144 (bispecific anti-ANG2/PDGF-B CrossMab antibody) (bispecific antibody, human IgG1, kappa, L234A L235A)
heavy 1: SYVLTQPPSVSVAPGQTARITCGGNNIGSKSVHWYQQKPGQAPVLVVYDTSDRPSGIPERFSGSNSGNTATLTISRVEAGDEADYYCQVWDSSSDHWVFGGGTKLTVLSSASTKGPSVFPLAPSSKSTSGGTAALGCLVKDYFPEPVTVSWNSGALTSGVHTFPAVLQSSGLYSLSSVVTVPSSSLGTQTYICNVNHKPSNTKVDKKVEPKSCDKTHTCPPCPAPEAAGGPSVFLFPPKPKDTLMASRTPEVTCVVVDVSHEDPEVKFNWYVDGVEVHNAKTKPREEQYNSTYRVVSVLTVLAQDWLNGKEYKCKVSNKALGAPIEKTISKAKGQPREPQVYTLPPCRDELTKNQVSLWCLVKGFYPSDIAVEWESNGQPENNYKTTPPVLDSDGSFFLYSKLTVDKSRWQQGNVFSCSVMHEALHNAYTQKSLSLSPGK
heavy 2: not shown
light 1: not shown
light 2: not shown
B2: antibody 0086 (antibody, V domains shown)
VH: EVQLVESGGGLVQPGGSLRLSCAASGFTFSSYWMSWVRQAPEKGLEWVSTISDGGGLTYYADSVKGRFTISRDNAKNSLYLQMNSLRAEDTAVYYCAESGGYTDWLFGYWGQGTLVTVSS
VL: not shown
B3: antibody 0085 (antibody, V domains shown)
VH: B2 VH
VL: not shown
B4: antibody 0117 (bispecific anti-VEGF/PDGF-B CrossMab antibody) (bispecific antibody, human IgG1, kappa, L234A L235A)
chain 1: DIQLTQSPSSLSASVGDRVTITCSASQDISNYLNWYQQKPGKAPKVLIYFTSSLHSGVPSRFSGSGSGTDFTLTISSLQPEDFATYYCQQYSTVPWTFGQGTKVEIKSSASTKGPSVFPLAPSSKSTSGGTAALGCLVKDYFPEPVTVSWNSGALTSGVHTFPAVLQSSGLYSLSSVVTVPSSSLGTQTYICNVNHKPSNTKVDKKVEPKSCDKTHTCPPCPAPEAAGGPSVFLFPPKPKDTLMASRTPEVTCVVVDVSHEDPEVKFNWYVDGVEVHNAKTKPREEQYNSTYRVVSVLTVLAQDWLNGKEYKCKVSNKALGAPIEKTISKAKGQPREPQVYTLPPCRDELTKNQVSLWCLVKGFYPSDIAVEWESNGQPENNYKTTPPVLDSDGSFFLYSKLTVDKSRWQQGNVFSCSVMHEALHNAYTQKSLSLSPGK
chain 2: not shown
chain 3: EVQLVESGGGLVQPGGSLRLSCAASGYDFTHYGMNWVRQAPGKGLEWVGWINTYTGEPTYAADFKRRFTFSLDTSKSTAYLQMNSLRAEDTAVYYCAKYPYYYGTSHWYFDVWGQGTLVTVSSASVAAPSVFIFPPSDEQLKSGTASVVCLLNNFYPREAKVQWKVDNALQSGNSQESVTEQDSKDSTYSLSSTLTLSKADYEKHKVYACEVTHQGLSSPVTKSFNRGEC
chain 4: not shown
notes: also called anti-PDGFB/VEGF antibody
B5: mumAb (murine anti-human PDGF-B antibody) (antibody, V domains shown)
VH: QVQLQQSGAELMKPGASVKISCKATGYTFSSYWIEWVKQRPGHGLEWIGEILPGSGSTNYNEKFKVKATFTADTSSNTAYMQLSSLTSEDSAVYYCAQTTQDFDSWGQGTTLTVSS
VL: DIVLTQSPGSLAVSLGQRATISCRASESVDIYGYSFMHWYQQKPGQPPKLLIYRASNLESGIPARFSGSGSRTDFTLTINPVEADDVATYYCQQSNEDPRTFGGGTKLEIK

Columns and labels:
[1] = target: T1, human ANG2-RBD-mouse Fc-region fusion; test: cell-based or functional assay
human PDGF-BB [2] = target: T2, human PDGF-BB (human, UniProt P01127 82-190); test: cell-based or functional assay
T2 sequence (P01127 82-190 limits assumed): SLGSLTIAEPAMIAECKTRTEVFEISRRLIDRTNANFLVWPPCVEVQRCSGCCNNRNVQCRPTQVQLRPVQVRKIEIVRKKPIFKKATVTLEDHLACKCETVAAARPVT

human PDGF-BB [3] = target: T2, human PDGF-BB; test: cell-based or functional assay; remark: listed apart in the source
human PDGF-BB [4] = target: T2, human PDGF-BB; test: cell-based or functional assay; remark: listed apart in the source
human PDGF-BB [5] = target: T2, human PDGF-BB; test: SPR, on immobilized human PDGF-BB (Example 32); set-up: t½: unit not given here
human PDGF-BB [6] = target: T2, human PDGF-BB; test: cell-based or functional assay; remark: listed apart in the source

Binder	Balb-C3T3 Proliferation % neutralization (human PDGF-BB [2])	Balb-C3T3 Proliferation IC50 (human PDGF-BB [2])	Pericytes Migration % neutralization (human PDGF-BB [2])	Pericytes Migration IC50 (human PDGF-BB [2])	Pericytes Proliferation % neutralization (human PDGF-BB [2])	Pericytes Proliferation IC50 (human PDGF-BB [2])	other results
B1	–	–	–	–	–	–	ANG2 specific pTie2-ELISA [1]: 6 fold
B2	100%	0.11 nM	100%	0.09 nM	100%	0.09 nM	–
B3	100%	0.06 nM	90%	0.15 nM	100%	0.11 nM	–
B4	–	–	–	–	–	–	IC50 Proliferation 3T3 (human PDGF-BB [3]): 0.019 nM; IC50 Proliferation human pericytes (human PDGF-BB [3]): 0.016 nM; IC50 Migration-Inhibition human pericytes (human PDGF-BB [4]): 0.06 nM; IC50 Phospho-Inhibition human pericytes (human PDGF-BB [4]): 0.055 nM; Kd (human PDGF-BB [5]): 3 nM; koff (human PDGF-BB [5]): 0.000245 s⁻¹; kon (human PDGF-BB [5]): 76700 M⁻¹ s⁻¹; t½ (human PDGF-BB [5]): 47
B5	–	–	–	–	–	–	Balb-C3T3 Proliferation IC50 (human PDGF-BB [6]): 0.179 nM; Pericytes Migration IC50 (human PDGF-BB [6]): 0.08 nM; Pericytes Proliferation IC50 (human PDGF-BB [6]): 0.21 nM
